# From patent US20220402990
# How the values were obtained:
# [1] = molecular target: Activatable cytokine construct IFN-α-2b 1490DNI-hIgG4
# [2] = molecular target: Activatable cytokine construct IFN-α2b-1204DNIdl-hIgG4
# [3] = molecular target: IFN-α2b-1204DNIdl-hIgG4 with five amino acid residues added to the linker
protein,measurement,setting,value
recombinant human matriptase (MT-SP1) (protein) VVGGTDADEGEWPWQVSLHALGQGHICGASLISPNWLVSAAHCYIDDRGFRYSDPTQWTAFLGLHDQSQRSAPGVQERRLKRIISHPFFNDFTFDYDIALLELEKPAEYSSMVRPICLPDASHVFPAGKAIWVTGWGHTQYGGTGALILQKGEIRVINQTTCENLLPQQITPRMMCVGFLSGGVDSCQGDSGGPLSSVEADGRIFQAGVVSWGDGCAQRNKPGVYTRLPLFRDWIKENTGV,"protease cleavage, gel electrophoresis",[1],The results suggest that the proteases were effective at cleaving the cleavable moieties in the activatable cytokine constructs
same,"protease cleavage, gel electrophoresis",[2],The results suggest that the proteases were effective at cleaving the cleavable moieties in the activatable cytokine constructs
same,"protease cleavage, gel electrophoresis",[3],The results suggest that the proteases were effective at cleaving the cleavable moieties in the activatable cytokine constructs
